Reference: patent publication US20220041709A1 (MITSUBISHI TANABE PHARMA, published 2022)

Key:
Human IL-33 [1] = molecular target: T1, Human IL-33 (human, UniProt O95760 112-270, limits assumed); assay: ELISA on plate-coated human IL-33, HRP anti-human IgG detection; 150 mg/mL formulation stored 6 months at 2 to 8 C
T1 construct: also called NF-HEV
T1 sequence (looked up): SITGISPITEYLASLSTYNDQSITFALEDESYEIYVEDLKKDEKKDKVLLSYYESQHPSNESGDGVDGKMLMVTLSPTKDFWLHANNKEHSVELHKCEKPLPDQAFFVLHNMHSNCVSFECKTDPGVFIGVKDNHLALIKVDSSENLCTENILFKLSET
Method: (§1) monoclonal antibody (A10-1C04, A23-1A05, A25-2C02, A25-3H04 or A26-1F02) were prepared with 10 mM histidine/pH 6/0.02% (w/v) polysorbate 80/3.6% (w/v) sorbitol, and then each filled into a glass vial and sealed with a halogenated butyl rubber stopper, […] 8° C. as a long-term stability test. The presence or absence of aggregation was confirmed by visual examination for 5 seconds each under a 2000 to 3750 Lux fluorescent lamp, against white and black board backgrounds. The binding activity was evaluated by the following method. Human IL-33 was added to a 96-well plate and allowed to form a solid phase overnight. BSA was used for blocking, and then the sample solution was added to each well, reacted with HRP-labeled anti-human IgG antibody and colored with TMB. The absorbance at 450 nm and 650 nm was then measured with a plate reader (Molecular Devices Corp.) to determine the EC50 value. The EC50 value of the standard solution was also determined in the same manner, and the ratio was calculated.
(§2) Compositions of 150 mg/mL of each human anti-IL-33 monoclonal antibody (A10-1C04, A23-1A05, A25-2C02, A25-3H04 or A26-1F02) were prepared with 10 mM histidine/pH 6/0.02% (w/v) polysorbate 80/4.0% (w/v) sorbitol, and then each was filled into a glass vial and sealed with a halogenated butyl rubber stopper, and stored for 3 and 6 months at a temperature of 2 to 8° C. as a long-term stability test. […]

Human IL-33 [2] = molecular target: T1, Human IL-33; assay: ELISA on plate-coated human IL-33, HRP anti-human IgG detection; 150 mg/mL formulation, 2 to 8 C, T0
Method: The presence or absence of aggregation was confirmed by visual examination for 5 seconds each under a 2000 to 3750 Lux fluorescent lamp, against white and black board backgrounds. The binding activity was evaluated by the following method. Human IL-33 was added to a 96-well plate and allowed to form a solid phase overnight. BSA was used for blocking, and then the sample solution was added to each well, reacted with HRP-labeled anti-human IgG antibody and colored with TMB. The absorbance at 450 nm and 650 nm was then measured with a plate reader (Molecular Devices Corp.) to determine the EC50 value. The EC50 value of the standard solution was also determined in the same manner, and the ratio was calculated.
Compositions of 150 mg/mL of each human anti-IL-33 monoclonal antibody (A10-1C04, A23-1A05, A25-2C02, A25-3H04 or A26-1F02) were prepared with 10 mM histidine/pH 6/0.02% (w/v) polysorbate 80/4.0% (w/v) sorbitol, and then each was filled into a glass vial and sealed with a halogenated butyl rubber stopper, and stored for 3 and 6 months at a temperature of 2 to 8° C. as a long-term stability test. The evaluation was conducted by the same method as Example 14.

Human IL-33 [3] = molecular target: T1, Human IL-33; assay: ELISA on plate-coated human IL-33, HRP anti-human IgG detection; 10 mg/mL formulation stored 1 year at 2 to 8 C
Method: (§3) Compositions of 10 mg/mL of each human anti-IL-33 monoclonal antibody (A10-1C04, A23-1A05, A25-2C02, A25-3H04 or A26-1F02) were prepared with 10 mM histidine/pH 6/0.02% (w/v) polysorbate 80/3.6% (w/v) sorbitol, and then each filled into a glass vial and sealed with a halogenated butyl rubber stopper, and stored for 1, 2 and 3 years at a temperature of 2 to 8° C. as a long-term stability test. The presence or absence of aggregation was confirmed by visual examination for 5 seconds each under a 2000 to 3750 Lux fluorescent lamp, against white and black board backgrounds. The binding activity was evaluated by the following method. Human IL-33 was added to a 96-well plate and allowed to form a solid phase overnight. BSA was used for blocking, and then the sample solution was added to each well, reacted with HRP-labeled anti-human IgG antibody and colored with TMB. The absorbance at 450 nm and 650 nm was then measured with a plate reader (Molecular Devices Corp.) to determine the EC50 value. The EC50 value of the standard solution was also determined in the same manner, and the ratio was calculated.

Human IL-33 [4] = molecular target: T1, Human IL-33; assay: ELISA on plate-coated human IL-33, HRP anti-human IgG detection; 150 mg/mL formulation stored 3 months at 2 to 8 C
Method: as §1, §2

Human IL-33 [5] = molecular target: T1, Human IL-33; assay: ELISA on plate-coated human IL-33, HRP anti-human IgG detection; 10 mg/mL formulation, 2 to 8 C, T0
Method: as §3

Human IL-33 [6] = molecular target: T1, Human IL-33; assay: ELISA on plate-coated human IL-33, HRP anti-human IgG detection; 10 mg/mL formulation stored 3 years at 2 to 8 C
Method: as §3

Human IL-33 [7] = molecular target: T1, Human IL-33; assay: ELISA on plate-coated human IL-33, HRP anti-human IgG detection; 10 mg/mL formulation stored 2 years at 2 to 8 C
Method: as §3

Binding activity (ratio of EC50 to that of the standard solution) (Human IL-33 [1]): 100%
Binding activity (ratio of EC50 to that of the standard solution) (Human IL-33 [2]): 115%
Binding activity (ratio of EC50 to that of the standard solution) (Human IL-33 [3]): 110%
Binding activity (ratio of EC50 to that of the standard solution) (Human IL-33 [4]): 110%
Binding activity (ratio of EC50 to that of the standard solution) (Human IL-33 [5]): 100%
Binding activity (ratio of EC50 to that of the standard solution) (Human IL-33 [6]): 101%
Binding activity (ratio of EC50 to that of the standard solution) (Human IL-33 [7]): 101%
B1: human anti-IL-33 monoclonal antibody A10-1C04 (antibody, human IgG1, lambda, V domains shown)
VH: EVQLLESGGGLVQPGGSLRLSCAASGFTFSDYYMNWVRQAPGKGLEWVSSISRYSSYIYYADSVKGRFTISRDNSKNTLYLQMNSLRAEDTAVYYCARDIGGMDVWGQGTLVTVSS
VL: QSVLTQPPSASGTPGQRVTISCTGSSSNIGAVYDVHWYQQLPGTAPKLLIYRNNQRPSGVPDRFSGSKSGTSASLAISGLRSEDEADYYCQTYDSSRWVFGGGTKLTVLG
notes: Detected with anti-human IgG antibody in the ELISA
